Molecular target: 3×HA-xtMc1r (Xenopus tropicalis melanocortin 1 receptor) (Xenopus tropicalis)

Row | EC50 of ACTH in the cAMP luciferase reporter assay (pCRE-luc, HEK293T), xtMc1r:xtMrap1 plasmid ratios 1:0 to 1:6; EC50 from 1.171 × 10^−9 M (1:3) to 7.006 × 10^−9 M (1:0) [M] | EC50 of ACTH in the cAMP luciferase reporter assay (pCRE-luc, HEK293T), xtMc1r:xtMrap2 plasmid ratios 1:0 to 1:6; EC50 from 1.513 × 10^−9 M (1:6) to 7.150 × 10^−9 M (1:0) [M] | EC50 of α-MSH in the cAMP luciferase reporter assay (pCRE-luc, HEK293T), xtMc1r:xtMrap1 plasmid ratios 1:0 to 1:6; EC50 from 6.906×10^−10 M (1:6) to 2.806 × 10^−9 M (1:0) [M] | EC50 of α-MSH in the cAMP luciferase reporter assay (pCRE-luc, HEK293T), xtMc1r:xtMrap2 plasmid ratios 1:0 to 1:6; EC50 from 7.550 × 10^−10 M (1:3) to 2.036 × 10^−9 M (1:0) [M] | Substance
1 | 7.01e-09 | 7.15e-09 |  |  | ACTH peptide
2 |  |  | 2.81e-09 | 2.04e-09 | alpha melanocyte-stimulating hormone (α-MSH) peptide

From PMC9251544
